Holding throughout (experiment): SPR; biotinylated-Avitagged Sd proteins immobilized on sensor chips; Yki^30-146 or Vg^263-382 as analyte; carried out as previously described (ref. 28)
What all share (settings): both partners purified
For orientation: In SPR one partner is held on a chip, and binding of the other changes the refractive index at the surface.

Experiment [1] has as its target T1, Scalloped, residues 223-440, Glu352Gln mutant (Glu352Gln^Sd) (Drosophila melanogaster, UniProt P30052 223-440, Glu352Gln, acylated to completion with Myristoyl-Coenzyme A: predominantly on Lys350 (hydroxylamine-insensitive, 90%), the rest on Cys373 (10%); biotin on the Avitag).
T1 construct: Scalloped (Sd), Drosophila homolog of human TEAD, UniProtKB P30052, residues 223-440, with Glu352Gln; Mutation introduced into wt^Sd; source: E. coli, purified in a similar manner to wt^Sd, treated with Myristoyl-Coenzyme A
T1 sequence (looked up): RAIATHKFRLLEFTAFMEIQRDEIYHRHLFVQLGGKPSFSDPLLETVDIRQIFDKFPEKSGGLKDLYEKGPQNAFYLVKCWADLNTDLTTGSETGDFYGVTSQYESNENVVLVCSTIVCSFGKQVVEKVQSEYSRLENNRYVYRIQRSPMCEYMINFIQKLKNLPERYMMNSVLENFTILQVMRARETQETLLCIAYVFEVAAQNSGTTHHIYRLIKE

Experiment [2] has as its target T2, Scalloped, residues 223-440, Lys350Ala mutant (Lys350Ala^Sd) (Drosophila melanogaster, UniProt P30052 223-440, Lys350Ala, acylated to completion with Myristoyl-Coenzyme A, only on Cys373 (hydroxylamine-sensitive, 100%); biotin on the Avitag).
T2 construct: Scalloped (Sd), Drosophila homolog of human TEAD, UniProtKB P30052, residues 223-440, with Lys350Ala; Mutation introduced into wt^Sd; source: E. coli, purified in a similar manner to wt^Sd, treated with Myristoyl-Coenzyme A
T2 sequence (looked up): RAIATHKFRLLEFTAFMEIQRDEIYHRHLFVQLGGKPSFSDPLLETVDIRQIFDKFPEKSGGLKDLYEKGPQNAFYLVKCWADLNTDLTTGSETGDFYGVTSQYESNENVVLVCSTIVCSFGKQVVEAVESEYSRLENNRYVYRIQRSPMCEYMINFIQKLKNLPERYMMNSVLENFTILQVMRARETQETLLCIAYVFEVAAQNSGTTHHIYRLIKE

The target in experiment [3] is T3, Scalloped, residues 223-440, wild type (Sd^223-440) (Drosophila melanogaster, UniProt P30052 223-440, acylated to completion with Myristoyl-Coenzyme A: a mixture acylated on Cys373 (hydroxylamine-sensitive, 47%) or on Lys350 (hydroxylamine-insensitive, 54%); biotin on the Avitag).
T3 construct: Scalloped (Sd), Drosophila homolog of human TEAD, UniProtKB P30052, residues 223-440; also called wt^Sd
T3 sequence (looked up): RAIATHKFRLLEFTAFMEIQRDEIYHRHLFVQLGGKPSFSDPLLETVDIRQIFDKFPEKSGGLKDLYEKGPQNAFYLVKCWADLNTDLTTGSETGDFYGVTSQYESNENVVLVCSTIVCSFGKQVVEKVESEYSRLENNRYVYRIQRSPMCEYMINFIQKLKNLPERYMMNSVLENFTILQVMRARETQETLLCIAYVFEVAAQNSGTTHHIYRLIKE

B1: Vestigial, residues 263-382 (Vg^263-382) (domain or fragment, Drosophila melanogaster, UniProt Q26366 263-382, looked up)
chain: ETPMGSGGGGLAGSGQGQAQYLSASCVVFTNYSGDTASQVDEHFSRALNYNNKDSKESSSPMSNRNFPPSFWNSNYVHPIPAPTHHQVSDLYGTATDTGYATDPWVPHAAHYGSYAHAAH
A word on the Kd: it is the free concentration of one partner at which half of the binding sites on the other are occupied at equilibrium, for simple one-to-one binding. Turning to B1, the dissociation constant Kd in experiment [1] stood at 0.37 nM; in experiment [2] it was 2.3 nM; in experiment [3], 0.38 nM.

B2: Yorkie, residues 30-146 (Yki^30-146) (domain or fragment, Drosophila melanogaster, UniProt Q45VV3 30-146, looked up)
chain: SNNLVVRVNQDTDDNLQALFDSVLNPGDAKRPLQLPLRMRKLPNSFFTPPAPSHSRANSADSTYDAGSQSSINIGNKASIVQQPDGQSPIAAIPQLQIQPSPQHSRLAIHHSRARSS
Consider B2, for which the values for the Kd in experiment [1], in experiment [2] and in experiment [3] were 4.9 nM, 14 nM and 9.5 nM, respectively.
